Legend:
[1] = tested on: lysosomal enzyme activity (rhGAA, I2S); experiment: Enzyme activity of lysosomal enzyme after conjugation or deglycosylation; format: biochemical, human; conditions: after conjugation of variant IGF2 peptide (data not shown)
From the text: The high-mannose type N-glycans on rhGAA is problematic because it is believed that these carbohydrates cause the protein to be rapidly cleared from the circulation via macrophage and splenic mannose receptors. […] Deglycosylation of rhGAA can be performed after the enzyme is modified with S-Hynic and purified (via size exclusion chromatography or dialysis to remove excess crosslinker). This strategy allows for complete deglycosylation of rhGAA over 1-5 days using EndoF or EndoH without affecting enzyme activity. The deglycosylated hydrazide-modified rhGAA is then conjugated to PEG4-benzaldehyde-modified IGF-2 peptides. Alternatively, rhGAA deglycosylation can be performed concurrently during the conjugation of PEG4-benzaldehyde-modified IGF-2 peptide to hydrazide-modified rhGAA using high concentrations of EndoF or EndoH. Deglycosylated, IGF2 peptide-conjugated rhGAA is then purified by gel filtration chromatography or dialysis to remove excess phosphine-modified IGF-2 peptides and stored in acidic pH buffer (50 mM sodium phosphate, pH 6.2/100 mM NaCl/0.05% Polysorbate-80). […]
To assess the functional effects of IGF2 peptide for the cellular uptake of exogenous lysosomal enzymes, the internalization of IGF2-conjugated rbGAA (vIGF2-rhGAA) was evaluated in L6 rat skeletal muscle myoblasts. […]

IGF-2/CI-MPR = IGF-2/CI-MPR (Homo sapiens, UniProt P11717); conditions: ligand affinity for IGF-2/CI-MPR; read-out: Binding Affinity (Apparent Kd; nM); cited from earlier work
Fabry disease = conditions: 1 mg/kg body weight every other week; cited from earlier work

Chain of IGF-2/CI-MPR (P11717 41-2491): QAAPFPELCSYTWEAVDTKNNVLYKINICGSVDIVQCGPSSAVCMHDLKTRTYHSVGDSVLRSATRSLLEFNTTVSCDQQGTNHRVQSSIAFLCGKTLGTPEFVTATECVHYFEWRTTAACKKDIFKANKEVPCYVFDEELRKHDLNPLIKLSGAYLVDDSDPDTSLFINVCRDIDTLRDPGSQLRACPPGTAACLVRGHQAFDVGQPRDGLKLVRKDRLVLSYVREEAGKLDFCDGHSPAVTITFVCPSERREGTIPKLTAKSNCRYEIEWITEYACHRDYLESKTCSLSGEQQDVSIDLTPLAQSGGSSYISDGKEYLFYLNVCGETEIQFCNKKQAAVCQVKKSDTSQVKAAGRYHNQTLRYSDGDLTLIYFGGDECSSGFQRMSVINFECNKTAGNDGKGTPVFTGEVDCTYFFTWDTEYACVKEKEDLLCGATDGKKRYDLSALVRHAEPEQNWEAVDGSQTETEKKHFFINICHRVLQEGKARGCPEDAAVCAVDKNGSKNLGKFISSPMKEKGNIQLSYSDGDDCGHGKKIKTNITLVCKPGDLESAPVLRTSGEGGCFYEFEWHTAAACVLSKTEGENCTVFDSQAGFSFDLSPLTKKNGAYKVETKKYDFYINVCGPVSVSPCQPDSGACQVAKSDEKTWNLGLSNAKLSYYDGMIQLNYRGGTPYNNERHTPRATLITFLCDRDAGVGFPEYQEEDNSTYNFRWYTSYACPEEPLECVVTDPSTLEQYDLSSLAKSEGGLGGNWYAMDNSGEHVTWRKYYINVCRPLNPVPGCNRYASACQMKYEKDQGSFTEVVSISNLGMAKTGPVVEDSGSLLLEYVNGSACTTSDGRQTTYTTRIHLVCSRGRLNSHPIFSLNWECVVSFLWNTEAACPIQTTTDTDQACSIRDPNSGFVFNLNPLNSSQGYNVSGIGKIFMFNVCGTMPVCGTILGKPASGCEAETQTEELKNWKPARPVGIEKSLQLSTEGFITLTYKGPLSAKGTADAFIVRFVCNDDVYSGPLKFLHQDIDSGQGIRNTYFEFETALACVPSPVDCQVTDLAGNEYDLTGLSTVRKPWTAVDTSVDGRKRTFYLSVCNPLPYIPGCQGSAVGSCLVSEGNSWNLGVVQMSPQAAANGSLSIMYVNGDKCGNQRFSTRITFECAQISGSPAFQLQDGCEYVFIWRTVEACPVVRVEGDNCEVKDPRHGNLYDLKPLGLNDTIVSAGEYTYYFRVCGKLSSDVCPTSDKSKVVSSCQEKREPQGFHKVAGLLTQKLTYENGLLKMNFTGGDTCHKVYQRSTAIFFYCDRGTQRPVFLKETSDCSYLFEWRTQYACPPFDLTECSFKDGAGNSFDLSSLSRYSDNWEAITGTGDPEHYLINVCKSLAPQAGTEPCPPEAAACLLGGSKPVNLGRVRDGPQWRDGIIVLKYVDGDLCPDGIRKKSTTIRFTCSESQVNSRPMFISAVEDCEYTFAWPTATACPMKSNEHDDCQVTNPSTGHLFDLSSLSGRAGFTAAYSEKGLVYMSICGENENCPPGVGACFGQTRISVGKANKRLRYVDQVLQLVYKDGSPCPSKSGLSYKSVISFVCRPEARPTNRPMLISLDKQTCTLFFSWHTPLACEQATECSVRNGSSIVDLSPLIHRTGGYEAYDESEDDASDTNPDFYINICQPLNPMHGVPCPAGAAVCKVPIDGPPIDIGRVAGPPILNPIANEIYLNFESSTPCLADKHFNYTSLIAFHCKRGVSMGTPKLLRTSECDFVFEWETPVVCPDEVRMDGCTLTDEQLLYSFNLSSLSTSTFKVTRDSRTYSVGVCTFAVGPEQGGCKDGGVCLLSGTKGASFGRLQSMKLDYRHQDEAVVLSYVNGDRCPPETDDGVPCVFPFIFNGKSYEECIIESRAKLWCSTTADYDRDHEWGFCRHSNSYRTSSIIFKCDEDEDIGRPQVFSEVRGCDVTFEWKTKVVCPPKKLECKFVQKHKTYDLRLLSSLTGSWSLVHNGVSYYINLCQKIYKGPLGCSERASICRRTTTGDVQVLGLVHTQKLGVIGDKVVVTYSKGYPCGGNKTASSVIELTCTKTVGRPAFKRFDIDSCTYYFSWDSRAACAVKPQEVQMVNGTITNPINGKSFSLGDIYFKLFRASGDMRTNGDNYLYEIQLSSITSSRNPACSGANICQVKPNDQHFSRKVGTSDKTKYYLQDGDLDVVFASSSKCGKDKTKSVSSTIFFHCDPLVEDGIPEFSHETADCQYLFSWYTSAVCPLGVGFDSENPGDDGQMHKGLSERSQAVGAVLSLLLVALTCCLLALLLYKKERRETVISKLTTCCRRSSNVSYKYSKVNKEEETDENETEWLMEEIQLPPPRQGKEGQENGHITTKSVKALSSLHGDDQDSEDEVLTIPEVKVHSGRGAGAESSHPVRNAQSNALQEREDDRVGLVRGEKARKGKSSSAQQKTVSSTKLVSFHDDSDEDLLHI

B1: I2S: Recombinant human acid iduronidate 2-sulfatase (protein, UniProt P22304 34-455; P22304 456-550, looked up)
Iduronate 2-sulfatase 42 kDa …: TDALNVLLIIVDDLRPSLGCYGDKLVRSPNIDQLASHSLLFQNAFAQQAVCAPSRVSFLTGRRPDTTRLYDFNSYWRVHAGNFSTIPQYFKENGYVTMSVGKVFHPGISSNHTDDSPYSWSFPPYHPSSEKYENTKTCRGPDGELHANLLCPVDVLDVPEGTLPDKQSTEQAIQLLEKMKTSASPFFLAVGYHKPHIPFRYPKEFQKLYPLENITLAPDPEVPDGLPPVAYNPWMDIRQREDVQALNISVPYGPIPVDFQRKIRQSYFASVSYLDTQVGRLLSALDDLQLANSTIIAFTSDHGWALGEHGEWAKYSNFDVATHVPLIFYVPGRTASLPEAGEKLFPYLDPFDSASQLMEPGRQSMDLVELVSLFPTLAGLAGLQVPPRCPVPSFHVELCREGKNLLKHFRFRDLEEDPYLPG
Iduronate 2-sulfatase 14 kDa …: NPRELIAYSQYPRPSDIPQWNSDKPSLKDIKIMGYSIRTIDYRYTVWVGFNPDEFLANFSDIHAGELYFVDSDPLQDHNMYNDSQGGDLFQLLMP
With B1 the “effect of chemical conjugation of variant IGF2 peptide on enzyme activity” value [1] was “did not affect enzyme activity”.

B2: beta-galactosidase: lysosomal enzyme listed as ligand of IGF-2/CI-MPR (protein, UniProt P16278 29-677, looked up)
Beta-galactosidase: QRMFEIDYSRDSFLKDGQPFRYISGSIHYSRVPRFYWKDRLLKMKMAGLNAIQTYVPWNFHEPWPGQYQFSEDHDVEYFLRLAHELGLLVILRPGPYICAEWEMGGLPAWLLEKESILLRSSDPDYLAAVDKWLGVLLPKMKPLLYQNGGPVITVQVENEYGSYFACDFDYLRFLQKRFRHHLGDDVVLFTTDGAHKTFLKCGALQGLYTTVDFGTGSNITDAFLSQRKCEPKGPLINSEFYTGWLDHWGQPHSTIKTEAVASSLYDILARGASVNLYMFIGGTNFAYWNGANSPYAAQPTSYDYDAPLSEAGDLTEKYFALRNIIQKFEKVPEGPIPPSTPKFAYGKVTLEKLKTVGAALDILCPSGPIKSLYPLTFIQVKQHYGFVLYRTTLPQDCSNPAPLSSPLNGVHDRAYVAVDGIPQGVLERNNVITLNITGKAGATLDLLVENMGRVNYGAYINDFKGLVSNLTLSSNILTDWTIFPLDTEDAVRSHLGGWGHRDSGHHDEAWAHNSSNYTLPAFYMGNFSIPSGIPDLPQDTFIQFPGWTKGQVWINGFNLGRYWPARGPQLTLFVPQHILMTSAPNTITVLELEWAPCSSDDPELCAVTFVDRPVIGSSVTYDHPSKPVEKRLMPPPPQKNKDSWLDHV
For B2, the Kd (IGF-2/CI-MPR) is listed as 20 nM.

B3: Fabrazyme: recombinant acid α-galactosidase A; Genzyme Corp. (protein, UniProt P06280 32-429, looked up)
Alpha-galactosidase A: LDNGLARTPTMGWLHWERFMCNLDCQEEPDSCISEKLFMEMAELMVSEGWKDAGYEYLCIDDCWMAPQRDSEGRLQADPQRFPHGIRQLANYVHSKGLKLGIYADVGNKTCAGFPGSFGYYDIDAQTFADWGVDLLKFDGCYCDSLENLADGYKHMSLALNRTGRSIVYSCEWPLYMWPFQKPNYTEIRQYCNHWRNFADIDDSWKSIKSILDWTSFNQERIVDVAGPGGWNDPDMLVIGNFGLSWNQQVTQMALWAIMAAPLFMSNDLRHISPQAKALLQDKDVIAINQDPLGKQGYQLRQGDNFEVWERPLSGLAWAVAMINRQEIGGPRSYTIAVASLGKGVACNPACFITQLLPVKRKLGFYEWTSRLRSHINPTGTVLLQLENTMQMSLKDLL
In the case of B3, the “clinical effectiveness in Fabry disease” value (Fabry disease) is given as “sufficient to clear accumulated substrate from endothelial cells”.

From US10660972B2, “Methods for coupling targeting peptides onto recombinant lysosomal enzymes for improved treatments of lysosomal storage diseases” (AMICUS THERAPEUTICS, INC., priority 2011, dated 2020)
